Measurements as given in patent publication US20240166752A1 (HEFEI TG IMMUNOPHARMA, published 2024).

Key:
[1] = molecular target: T1, MICA*002α3-Fc fusion protein; assay: ELISA, MICA*002α3-Fc coated
T1 construct: also called MICAα3*002 variant
From the text: (§1) The binding characteristics of the MICA antibody and the α3 domains of MICA and MICB was detected by ELISA in this example. The obtained various MICA, MICB variant extracellular region α3 domains (MICAα3*-002, 004, 005, 008, MICBα3*-005) Fc fusion proteins (MICAα3-Fc, MICBα3-Fc) and control antibody IgG were coated into a 96-well plate by the inventors. The signal strength after antibody addition was used to determine the binding characteristics of the antibody to MICA and MICB.
(§2) The fusion protein (MICA*002α3-Fc, amino acid sequence is as set forth in SEQ ID NO: 33; MICA*004α3-Fc, the amino acid sequence is as set forth in SEQ ID NO: 34; MICA*005α3-Fc, the amino acid sequence is as set forth in SEQ ID NO: 35; MICA*008α3-Fc, the amino acid sequence is as set forth in SEQ ID NO: 36; MICB*005α3-Fc, the amino acid sequence is as set forth in SEQ ID NO: 37) was diluted to 1 μg/ml with the PBS buffer and added to a 96-well plate in a volume of 100 μL/well and left overnight at 4° C. The PBS buffer solution was sucked off from the 96-well plate. The plate was washed 6 times with PBST (pH 7.2, PBS containing 0.1% Tween 20) buffer solution. 200 μL/well PBS/10% BSA was added and incubated at 37° C. for 2 hours for blocking. The blocking solution was removed. The plate was washed 6 times with PBST. […] The absorbance at […] was read with a microplate reader. […]

[2] = molecular target: T2, MICA*008α3-Fc fusion protein; assay: ELISA, MICA*008α3-Fc coated
T2 construct: also called MICAα3*008 variant
T2 sequence (chain, as listed by the source limits assumed): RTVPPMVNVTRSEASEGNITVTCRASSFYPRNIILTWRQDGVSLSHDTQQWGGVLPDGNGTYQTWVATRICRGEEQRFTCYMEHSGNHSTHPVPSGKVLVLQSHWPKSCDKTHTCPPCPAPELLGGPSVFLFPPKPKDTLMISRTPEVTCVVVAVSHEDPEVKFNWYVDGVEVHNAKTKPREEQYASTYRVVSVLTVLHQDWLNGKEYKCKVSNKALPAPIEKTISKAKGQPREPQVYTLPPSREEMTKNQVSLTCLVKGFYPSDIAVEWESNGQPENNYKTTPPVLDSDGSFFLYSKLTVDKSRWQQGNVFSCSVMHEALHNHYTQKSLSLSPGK
From the text: as §1, §2

[3] = molecular target: T3, recombinant MICA extracellular region Fc fusion protein (MICA-Fc) (human); assay: ELISA, MICA-Fc coated
T3 construct: also called human MICA
Experimental: The ELISA assay was used to detect the binding characteristics of the MICA antibody obtained in Example 1. The MICA extracellular region Fc fusion protein (MICA-Fc) as described above was coated into a 96-well plate. The signal strength after antibody addition was used to determine the binding characteristics of the antibody to MICA.
The MICA-Fc fusion protein (amino acid sequence as set forth in SEQ ID NO: 23) was diluted to 1 μg/mL with PBS buffer and added to a 96-well plate in a volume of 100 μL/well and left overnight at 4° C. The PBS buffer solution was sucked off from the 96-well plate. The plate was washed 6 times with PBST (pH 7.2, PBS containing 0.1% Tween 20) buffer solution. 200 μL/well PBS/10% BSA was added and incubated at 37 °C for 2 hours for blocking. The blocking solution was removed. The plate was washed 6 times with PBST. The MICA antibody to be tested was diluted to an appropriate concentration with 100 μL/well PBST/0.05% BSA, and incubated for 1 h at 37° C. The reaction system was removed. The plate was washed 6 times with PBST. HRP (horseradish peroxidase)-labeled anti-mouse antibody secondary antibody (Boster, BA1050) was diluted with PBST/0.05% BSA at 100 μL/well and incubated for 1 h at 37° C. After the incubation, the plate was washed 6 times with PBST, and 80 μL/well TMB (tetramethylbenzidine) was added. […] The absorbance at […] was read with a microplate reader.

[4] = molecular target: T4, MICA*004α3-Fc fusion protein; assay: ELISA, MICA*004α3-Fc coated
T4 construct: also called MICAα3*004 variant
T4 sequence (chain, as listed by the source limits assumed): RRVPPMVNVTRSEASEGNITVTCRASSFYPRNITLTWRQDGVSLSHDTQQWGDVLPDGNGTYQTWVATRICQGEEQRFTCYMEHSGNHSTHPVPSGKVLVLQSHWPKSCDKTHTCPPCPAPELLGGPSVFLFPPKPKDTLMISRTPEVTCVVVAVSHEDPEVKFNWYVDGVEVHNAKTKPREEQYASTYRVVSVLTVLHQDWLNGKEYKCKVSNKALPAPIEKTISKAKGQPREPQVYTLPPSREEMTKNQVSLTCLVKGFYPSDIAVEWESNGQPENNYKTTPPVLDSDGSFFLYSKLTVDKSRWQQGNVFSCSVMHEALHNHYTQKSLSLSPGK
From the text: as §1, §2

[5] = molecular target: T5, MICB*005α3-Fc fusion protein; assay: ELISA, MICB*005α3-Fc coated
T5 construct: also called MICBα3*005 variant
T5 sequence (chain, as listed by the source limits assumed): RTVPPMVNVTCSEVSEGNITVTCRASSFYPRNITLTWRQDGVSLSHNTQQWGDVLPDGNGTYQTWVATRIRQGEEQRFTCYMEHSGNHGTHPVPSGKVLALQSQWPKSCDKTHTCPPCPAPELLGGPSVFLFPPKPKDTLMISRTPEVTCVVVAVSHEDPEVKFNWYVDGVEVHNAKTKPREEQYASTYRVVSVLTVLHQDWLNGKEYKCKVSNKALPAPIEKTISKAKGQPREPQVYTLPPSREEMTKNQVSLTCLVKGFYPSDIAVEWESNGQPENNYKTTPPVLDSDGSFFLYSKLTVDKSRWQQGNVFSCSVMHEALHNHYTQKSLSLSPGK
From the text: as §1, §2

[6] = molecular target: T6, MICA expressed on CHO-K1-MICA cells (human, UniProt Q29983 24-383); assay: Western blot of CHO-K1-MICA lysate
T6 construct: Full-length entry as expressed from the lentiviral vector
T6 sequence: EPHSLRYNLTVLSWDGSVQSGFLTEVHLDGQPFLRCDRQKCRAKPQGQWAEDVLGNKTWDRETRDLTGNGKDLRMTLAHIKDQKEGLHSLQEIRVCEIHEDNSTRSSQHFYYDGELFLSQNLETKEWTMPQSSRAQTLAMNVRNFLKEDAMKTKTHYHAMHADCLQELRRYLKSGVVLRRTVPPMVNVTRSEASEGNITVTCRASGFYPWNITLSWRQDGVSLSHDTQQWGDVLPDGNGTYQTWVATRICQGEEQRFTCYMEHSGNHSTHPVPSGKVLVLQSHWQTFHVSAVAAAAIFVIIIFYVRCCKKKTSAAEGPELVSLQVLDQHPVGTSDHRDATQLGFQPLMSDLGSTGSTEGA
Experimental: The Western blot assay was used to determine the antigenic epitope characteristics of the MICA antibody.
CHO-K1-MICA, CHO-K1 cells constructed in Example 4 were washed twice with PBS. The RIPA lysate was then added for lysis for 15 min on ice. After 5 min of centrifugation at 15,000 g at 4° C., the supernatant was collected. The lysate supernatant was subjected to protein quantification using a BCA kit. Sample was then prepared with SDS-PAGE loading buffer and the sample addition amount is 50 μg/well. After electrophoresis, the sample was transferred to a nitrocellulose membrane and blocked with 5% nonfat dried milk at room temperature for 1 h. MICA antibody diluted at 1:2000 (w/v) was then added and incubated overnight at 4° C. The membrane was washed 5 min×6 times with 1%% PBST, then HRP-goat anti-mouse IgG diluted at 1:5000 (v/v) was added and incubated at room temperature for 1 h. The membrane was washed 5 min×6 times with 1%% PBST. Chemiluminescence was detected using ECL substrate development. The results are shown in FIG. 8, further showing that the antibody of the present disclosure can bind to a linear epitope of MICA protein.

[7] = molecular target: T7, MICA extracellular domain α3 domain Fc fusion protein (MICA α3-Fc) (human); assay: ELISA, MICAα3-Fc coated
T7 construct: also called MICA α3 domain
T7 sequence (chain, as listed by the source limits assumed): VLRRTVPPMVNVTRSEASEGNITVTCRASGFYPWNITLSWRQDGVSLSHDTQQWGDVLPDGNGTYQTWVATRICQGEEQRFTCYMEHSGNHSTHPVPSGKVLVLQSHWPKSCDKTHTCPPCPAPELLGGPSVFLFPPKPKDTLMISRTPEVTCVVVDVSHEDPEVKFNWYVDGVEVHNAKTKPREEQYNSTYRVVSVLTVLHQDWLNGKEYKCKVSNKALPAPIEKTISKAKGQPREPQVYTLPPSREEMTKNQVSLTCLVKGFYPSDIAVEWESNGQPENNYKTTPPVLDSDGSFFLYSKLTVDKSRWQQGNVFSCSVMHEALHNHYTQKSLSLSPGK
Experimental: The MICAα3-Fc fusion protein (amino acid sequence as set forth in SEQ ID NO: 24) was diluted to 1 μg/mL with PBS buffer and added to a 96-well plate in a volume of 100 μL/well and left overnight at 4° C. The PBS buffer solution was sucked off from the 96-well plate. The plate was washed 6 times with PBST (pH 7.2, PBS containing 0.1% Tween 20) buffer solution. 200 μL/well PBS/10% BSA was added and incubated at 37 °C for 2 hours for blocking. The blocking solution was removed. The plate was washed 6 times with PBST. The MICA antibodies to be tested were diluted to an appropriate concentration with 100 µL/well PBST/0.05% BSA, and incubated at 37 °C for 1 h. The reaction system was removed. The plate was washed 6 times with PBST. HRP (horseradish peroxidase)-labeled anti-mouse antibody secondary antibody (Boster, BA1050) was diluted with PBST/0.05% BSA at 100 μL/well and incubated for 1 h at 37° C. The plate was washed 6 times with PBST, and 80 μL/well TMB (tetramethylbenzidine) was added. After 3 min of incubation at room temperature, and 80 μL/well 4M sulfuric acid was added to terminate the reaction. The absorbance at […] was read with a microplate reader.

T1 sequence (chain, as listed by the source limits assumed): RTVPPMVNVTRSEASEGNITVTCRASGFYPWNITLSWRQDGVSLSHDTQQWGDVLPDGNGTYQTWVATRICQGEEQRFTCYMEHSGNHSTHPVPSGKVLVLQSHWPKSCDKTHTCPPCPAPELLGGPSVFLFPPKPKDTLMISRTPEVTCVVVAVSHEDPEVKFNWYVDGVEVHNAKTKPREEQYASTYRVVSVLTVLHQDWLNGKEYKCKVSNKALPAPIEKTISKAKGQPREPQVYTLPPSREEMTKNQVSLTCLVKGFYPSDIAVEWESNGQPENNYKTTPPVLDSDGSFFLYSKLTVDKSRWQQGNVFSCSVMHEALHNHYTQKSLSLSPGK

binding result [1]: binds
binding result [2]: binds
binding result [3]: binds
binding result [4]: binds
binding result [5]: binds
binding result [6]: binds
binding result [7]: binds
B1: MICA antibody 5A1 (murine monoclonal antibody against human MICA) (antibody, V domains shown)
VH: QVQLKQSGPGLVQPSQSLSITCIVSGFSLTTYGVHWVRQSPGKGLEWLGMIWTDGTTDYNAAFISRLSINKDNSKSQVFLKMNSLQADDTGIYYCVRKGHGYYYAMDYWGQGTSVTVSS
VL: QILLTQSPAILSASLGERVTMTCTASSSVSSSYLHWYQQKPGSSPKLWIYSTSNLASGVPARFSGGGSGTSYSLTVSNMEAEDAATYYCHQYHRSPFTFGSGTKLEIK
notes: Murine monoclonal antibody from a hybridoma; also called No. 5A1; the antibody of the present disclosure
